Measurements as given in PMC6083498, “F-CphI represents a new homing endonuclease family using the Endo VII catalytic motif”.

Experiments:
F-CphI N118D = molecular target: T1, F-CphI N118D (cyanophage S-PM2, UniProt Q7Y4H4 1-142, N118D); assay: EMSA; no Mg2+ added; EMSA: 10 mM Tris-HCl pH 8.0, 2% glycerol, 2 ug/ml poly-dIdC, 2 ug/ml BSA, 0.2 mM DTT, on ice 15 min, 2 nM labeled DNA; 8% native PAGE in 1X TBE; conditions: protein: recombinant; tags: C-terminal Myc-His; label: 5'-32P on top strand; blunt
T1 sequence: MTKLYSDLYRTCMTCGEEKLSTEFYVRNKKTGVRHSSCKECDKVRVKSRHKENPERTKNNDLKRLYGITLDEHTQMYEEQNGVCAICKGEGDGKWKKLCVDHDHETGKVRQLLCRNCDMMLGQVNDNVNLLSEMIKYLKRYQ

F-CphI C84S = molecular target: T2, F-CphI C84S (cyanophage S-PM2, UniProt Q7Y4H4 1-142, C84S); assay: as above; conditions: protein: recombinant; tags: C-terminal Myc-His; label: 5'-32P on top strand; blunt
T2 sequence: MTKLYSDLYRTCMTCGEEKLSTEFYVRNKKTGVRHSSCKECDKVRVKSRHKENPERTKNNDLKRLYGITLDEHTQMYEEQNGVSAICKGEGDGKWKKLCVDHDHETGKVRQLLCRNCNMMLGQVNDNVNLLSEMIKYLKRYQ

B1: SBM4-60Top duplex (dsDNA)
DNA 1: TGGTCTGGGTATGGAAGTGATGCACGAGCGCAACGCTCACAACTTCCCTCTCGACCTTGC
DNA 2: GCAAGGTCGAGAGGGAAGTTGTGAGCGTTGCGCTCGTGCATCACTTCCATACCCAGACCA
binding result (F-CphI N118D): no binding
binding result (F-CphI C84S): no binding
